From patent US20130035289A1, “PHARMACEUTICAL COMPOSITION FOR TREATMENT OF THROMBOSIS-RELATED DISEASES COMPRISING A FRAGMENT OF PROLACTIN (PRL)-GROWTH HORMONE (GH)-PLACENTAL LACTOGEN (PL)-FAMILY PROTEIN” (UNIVERSITE DE LIEGE, priority 2010, published 2013)

Assays:
PAI-1 [1] = molecular target: T1, PAI-1 (Homo sapiens, UniProt P05121); test: Inhibition of PAI-1 anti-proteolytic activity, uPA/plasminogen chromogenic (colorimetric) assay; type: biochemical; conditions: uPA, bovine plasminogen, PAI-1, absorbance 405 nm
T1 construct: gift of Pr; P. Declerck
T1 sequence (P05121 24-402): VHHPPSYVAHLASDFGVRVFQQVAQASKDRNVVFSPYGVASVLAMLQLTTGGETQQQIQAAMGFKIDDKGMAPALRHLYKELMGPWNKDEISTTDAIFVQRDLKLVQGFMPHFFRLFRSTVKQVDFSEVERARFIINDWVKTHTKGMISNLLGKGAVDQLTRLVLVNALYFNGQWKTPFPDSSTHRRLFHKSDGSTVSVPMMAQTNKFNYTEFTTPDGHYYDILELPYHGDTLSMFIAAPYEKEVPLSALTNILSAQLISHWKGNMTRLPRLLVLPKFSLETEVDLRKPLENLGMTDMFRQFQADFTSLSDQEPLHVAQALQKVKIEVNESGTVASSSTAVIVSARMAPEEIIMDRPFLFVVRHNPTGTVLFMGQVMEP
Procedure: The main physiological function of PAI-1 is to inhibit uPA and tPA proteolytic activity. […] A chromogenic substrate for plasmin (Spectrozyme PL: 0.5 mM. American Diagnostica INC) in PBS was added to the mixture in 96-well microtitration plates and kept at room temperature. The release of free p-nitro-aniline from the chromogenic substrate was measured spectrophotometrically. The activity of plasmin was determined as the absorbance at 405 nm.

PAI-1/tPA complex = molecular target: T2, PAI-1/tPA complex (Homo sapiens, UniProt P05121); test: Complex formation between PAI-1 and tPA by SDS-PAGE (silver staining); type: biochemical; conditions: PAI-1 pre-incubated 10 min at 37° C. with 16K hPRL (5 μg) or 14K hGH (4 μg), then tPA
T2 construct: purchased Calbiochem (tPA); PAI-1 a gift of Pr; P. Declerck
T2 sequence (P05121 24-402, one chain of several): as the sequence (P05121 24-402) above
Procedure: tPA/PAI-1 complex was formed 10 min after their incubation at 37° C. Pre-incubation of PAI-1 (4 μg) with 16K hPRL (5 μg) or 14K hGH (4 μg) during 10 min at 37° C., followed by a second 10 min incubation with tPA (2 μg) was stopped by the addition of sample buffer containing 5% β-Mercaptoethanol. Samples are heated at 95° C. before being analysed by SDS-PAGE. Silver staining was performed on the gel to visualize protein bands and complexes.

PAI-1 [2] = molecular target: T1, PAI-1; test: In vitro clot lysis assay in pooled normal human plasma with added PAI-1 and tPA; type: biochemical; conditions: 3 μM protein, recombinant PAI-1, tPA
Procedure: Clot lysis was performed as follows: pooled normal plasma were used in citrated tube. Recombinant wild type PAI-1 was incubated in the presence or in the absence of 16K hPRL (3 μM), 14K hGH (3 μM) or different peptides (25 μM) for 10 min at 37° C., before to be added to diluted plasma in tris tween buffer (75 μl of plasma in 200 μl of 10 mM TRIS pH 7.5, 0.01% tween 20), followed by a second incubation for 10 min at 37° C. tPA was added to each tube at the end to reach a final volume of […]. Aliquots from each tube (80 μl) were added in duplicate to 96 wells, each containing 20 μl CaCl2 to give the following final concentration per well of 10 mM. Clot formation and dissolution were monitored at RT measuring turbidity at 405 nm in 5 min intervals.

PAI-1 [3] = molecular target: T1, PAI-1; test: Gal4 yeast two-hybrid system; type: binding
uPA [4] = test: Immunoprecipitation with uPA in presence or absence of PAI-1; type: binding
Procedure: Western blot analysis of 16K PRL and 14K GH after their immunoprecipitation with uPA in the presence or in the absence of PAI-1. r14K GH and r16K PRL: recombinant proteins controls loaded on gels, no IP performed. (b) HUVEC were incubated with 14K GH or 16K PRL for 2 hours and then subjected to immunofluorescence analysis for uPA and 14K GH or 16K PRL Labellings appears in white for uPA (left panels), 14K GH or 16K PRL (middle panels).

uPA [5] = molecular target: T3, uPA (Homo sapiens, UniProt P00749+P05121); test: Double immunofluorescence staining on HUVEC, co-localization with uPA; type: cell-based; conditions: non permeabilized, 160 ng/ml
T3 construct: endogenous in cells; host or cells: HUVEC
Procedure: HUVEC were grown to 70% on gelatin-coated 35 mm dishes. After incubation at 37° C. with 14K hGH (160 ng/ml) or 16K hPRL (160 ng/ml), cells were washed with PBS at room temperature, non permeabilized and incubated for 1 hr at room temperature with mouse anti uPA (American Diagnostica INC. Greenwich, Conn.) 1/100, Rabbit anti Prolactin (Dako) 1/100 or rabbit anti human GH (home made) 1/100. Endothelial cells were washed in PBS and incubated with FITC horse anti mouse antibody (Vector Laboratory) and Texas Red Goat anti rabbit (Jackson Laboratory).
HUVECs were grown to 70% confluence on gelatin-coated 35-mm dishes. After incubation for 3 h with 14K GH (160 ng/ml) or 16K PRL (160 ng/ml), the cells were washed with PBS at room temperature and incubated for 1 h at room temperature under non-permeabilization conditions with mouse anti uPA (American Diagnostica INC) diluted 1/100, rabbit anti prolactin (Dako) diluted 1/100, or rabbit anti human GH (home made) diluted 1/100. Endothelial cells were washed in PBS and incubated with FITC horse anti mouse (Vector Laboratory) and Texas red goat anti rabbit antibodies (Jackson Laboratory). […] After 3 washes in PBS for 10 min, the slides were covered with coverslips in mounting medium (Victor Laboratories Inc.) and analyzed by fluorescence microscopy.

ABAE cells = test: Endothelial cell migration (wound assay); type: cell-based, bovine; conditions: for anti-migratory function: down-regulation of PAI-1 expression by si-RNA
Procedure: A layer of confluent ABAE cells in a 48-well tissue culture dish coated with 0.2% gelatin was wounded with a head of 200-μl tips. The experiment was performed in the presence of 50 ng/ml VEGF and 10 ng/ml bFGF. […] ID NO: 35); PAI-1 […] ID NO: 36).

endothelial cells = test: Endothelial cell adhesion assay on vitronectin; type: cell-based, bovine; conditions: for increase of cell adhesion: absence of PAI-1 (si-RNA); for pro-adhesion effect: recombinant wild type PAI-1 added to culture medium
From the text: ID NO: 35); PAI-1 […] ID NO: 36).

[6] = absence of PAI-1, data not shown
[7] = PAI-1 si-RNA transfected cells plus added human PAI-1
[8] = recombinant wild type PAI-1 added to culture medium

B1: 16K hPRL: 16K N-terminal human prolactin fragment, recombinant, produced and purified from E. coli (protein)
chain: LPICPGGAARCQVTLRDLFDRAVVLSHYIHNLSSEMFSEFDKRYTHGRGFITKAINSCHTSSLATPEDKEQAQQMNQKDFLSLIVSILRSWNEPLYHLVTEVRGMQEAPEAILSKAVEIEEQTKRLLEGMELIVSQVHP
**Q.** What does the source list for B1?
**A.** inhibition of PAI-1 function to inhibit uPA and tPA proteolytic activity (PAI-1 [1]): significantly inhibited; PAI-1/tPA complex formation (PAI-1/tPA complex): partially inhibit; clot lysis in human plasmas (PAI-1 [2]): increased significantly; interaction with PAI-1 in yeast two-hybrid system (PAI-1 [3]): interacts; complex with uPA (immunoprecipitation) (uPA [4]; [6]): does not form complex; complex with uPA (immunoprecipitation) (uPA [4]; in the presence of PAI-1): formation of uPA/PAI-1/16K PRL; co-localization with uPA (uPA [5]): co-localised at the cell surface; anti-migratory effect (ABAE cells; [7]): restored; anti-migratory function (ABAE cells): reduced significantly; anti-migratory effect (ABAE cells; [8]): reduced significantly; increase of cell adhesion (endothelial cells): not seen; pro-adhesion effect (endothelial cells): reduced significantly

B2: 14K hGH: 14K N-terminal fragment of human growth hormone, recombinant, produced and purified from E. coli (protein)
chain: MFPTIPLSRLFDNAMLRAHRLHQLAFDTYQEFEEAYIPKEQKYSFLQNPQTSLSFSESIPTPSNREETQQKSNLELLRISLLLIQSWLEPVQFLRSVFANSLVYGASDSNVYDLLKDLEEGIQTLMGRLEDGSP
**Q.** What does the source list for B2?
**A.** inhibition of PAI-1 function to inhibit uPA and tPA proteolytic activity (PAI-1 [1]): significantly inhibited; PAI-1/tPA complex formation (PAI-1/tPA complex): completely abolished; clot lysis in human plasmas (PAI-1 [2]): increased significantly; interaction with PAI-1 in yeast two-hybrid system (PAI-1 [3]): found to interact; complex with uPA (immunoprecipitation) (uPA [4]; [6]): does not form complex; complex with uPA (immunoprecipitation) (uPA [4]; in the presence of PAI-1): uPA/PAI-1/14K GH complexes; co-localization with uPA (uPA [5]): co-localised at the cell surface; anti-migratory effect (ABAE cells; [7]): restored; anti-migratory function (ABAE cells): reduced significantly; anti-migratory effect (ABAE cells; [8]): reduced significantly; increase of cell adhesion (endothelial cells): not seen; pro-adhesion effect (endothelial cells): reduced significantly
